As a reminder, the stoichiometry N is the number of molecules, sites or subunits per partner or assembly.

The results in this text go back to article PMC12578639.

Assay [1] deals with ThsB2-His6 (Sau–Thoeris ThsB2 with a C-terminal hexahistidyl tag) (Staphylococcus aureus 08BA02176). The assay can be described thus: SEC + other: mass photometry; complex assembled from individually purified subunits in the presence of NAD+; Superdex 200 Increase 10/300 GL, 25 mM Tris pH 7.5, 200 mM NaCl, 5% glycerol, 1 mM dithiothreitol; peaks analysed by SDS–PAGE; mass photometry at 100–200 nM.

Assay [2] deals with His6-ThsB1 (Sau–Thoeris ThsB1 with an N-terminal hexahistidyl tag) (Staphylococcus aureus 08BA02176). The assay is described as above.

Consider “ThsB2-His6 (Sau–Thoeris ThsB2 with a C-terminal hexahistidyl tag) (natural protein)”, for which the stoichiometry N in assay [1] is 2.

B1: Major head protein (Mhp) of phage Φ80α, gp47 (natural protein)
chain: ASNNVKPQVFNPDNVMMHEKKDGTLMNEFTTPILQEVMENSKIMQLGKYEPMEGTEKKFTFWADKPGAYWVGEGQKIETSKATWVNATMRAFKLGVILPVTKEFLNYTYSQFFEEMKPMIAEAFYKKFDEAGILNQGNNPFGKSIAQSIEKTNKVIKGDFTQDNIIDLEALLEDDELEANAFISKTQNRSLLRKIVDPETKERIYDRNSDSLDGLPVVNLKSSNLKRGELITGDFDKLIYGIPQLIEYKIDETAQLSTVKNEDGTPVNLFEQDMVALRATMHVALHIADDKAFAKLVPADKRTDSVPGEV
For B1, the stoichiometry N in assay [2] amounted to 1.
